Two molecules from patent publication US20240309113A1 (SUZHOU TRANSCENTA THERAPEUTICS, published 2024) can be followed below.

Test [1] addresses T1, Recombinant Human MASP-1 (human, UniProt P48740 20-699, limits assumed).
T1 construct: Bought protein, construct not described
T1 sequence (looked up): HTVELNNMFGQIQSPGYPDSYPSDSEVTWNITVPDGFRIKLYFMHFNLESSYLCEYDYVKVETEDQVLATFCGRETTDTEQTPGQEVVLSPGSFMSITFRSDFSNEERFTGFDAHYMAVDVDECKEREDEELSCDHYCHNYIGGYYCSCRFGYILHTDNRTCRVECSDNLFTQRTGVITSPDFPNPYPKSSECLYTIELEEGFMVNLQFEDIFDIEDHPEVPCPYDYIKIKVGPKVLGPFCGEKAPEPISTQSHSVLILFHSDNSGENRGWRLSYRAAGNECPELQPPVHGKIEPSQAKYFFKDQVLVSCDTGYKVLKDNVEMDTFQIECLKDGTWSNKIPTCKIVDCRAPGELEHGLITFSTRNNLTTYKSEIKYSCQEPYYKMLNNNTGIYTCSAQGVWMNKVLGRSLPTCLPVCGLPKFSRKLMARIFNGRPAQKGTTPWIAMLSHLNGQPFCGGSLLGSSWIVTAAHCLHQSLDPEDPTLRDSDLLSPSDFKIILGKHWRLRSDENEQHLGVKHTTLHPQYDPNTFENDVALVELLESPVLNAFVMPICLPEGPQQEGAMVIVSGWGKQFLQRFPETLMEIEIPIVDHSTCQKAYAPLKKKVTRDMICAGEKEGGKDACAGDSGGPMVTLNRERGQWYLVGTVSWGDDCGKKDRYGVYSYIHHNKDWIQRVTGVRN
The test can be described thus: ELISA; plate coated with recombinant human MASP-1, mouse anti-human IgG4 HRP, OD450.

The target in test [2] is T2, Recombinant Human MASP-3 (human, UniProt P48740-2 20-728, limits assumed).
T2 construct: Bought protein, construct not described
T2 sequence (looked up): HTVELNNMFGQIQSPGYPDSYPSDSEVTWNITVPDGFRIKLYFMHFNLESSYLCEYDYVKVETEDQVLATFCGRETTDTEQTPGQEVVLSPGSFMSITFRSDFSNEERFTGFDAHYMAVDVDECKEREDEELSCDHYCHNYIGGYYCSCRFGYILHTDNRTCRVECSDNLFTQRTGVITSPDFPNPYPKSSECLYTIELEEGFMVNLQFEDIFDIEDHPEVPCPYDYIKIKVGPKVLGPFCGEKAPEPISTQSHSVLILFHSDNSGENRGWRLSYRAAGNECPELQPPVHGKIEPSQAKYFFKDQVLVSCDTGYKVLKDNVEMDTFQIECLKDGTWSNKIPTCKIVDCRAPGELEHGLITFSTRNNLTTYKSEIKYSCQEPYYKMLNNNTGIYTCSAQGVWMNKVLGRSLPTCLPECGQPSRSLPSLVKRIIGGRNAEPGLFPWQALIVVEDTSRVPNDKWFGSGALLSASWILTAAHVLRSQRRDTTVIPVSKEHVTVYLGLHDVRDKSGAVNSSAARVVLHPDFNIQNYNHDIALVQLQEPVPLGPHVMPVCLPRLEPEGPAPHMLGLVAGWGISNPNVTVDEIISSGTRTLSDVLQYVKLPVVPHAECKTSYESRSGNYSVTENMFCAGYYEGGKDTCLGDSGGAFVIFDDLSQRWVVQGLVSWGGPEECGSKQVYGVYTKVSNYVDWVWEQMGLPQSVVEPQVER
Description: ELISA; plate coated with recombinant human MASP-3, mouse anti-human IgG4 HRP, OD450. On the technique in general: An ELISA detects its analyte on a solid surface through an enzyme-linked reagent.

The target in test [3] is T3, Human FcRn (FCGRT&B2M) protein with His tag (human, UniProt P55899 24-297; P61769 21-119).
T3 construct: Carries a His tag (held on Ni-NTA biosensors)
The test can be described thus: BLI (ForteBio), His-tagged human FcRn on Ni-NTA biosensor, antibody in solution (500, 167, 56, 19 nM). On the technique in general: In BLI a coated tip is dipped into the sample, and binding shifts an interference pattern.

The target of test [4] is T4, human MASP-2 protein (recombinant, full-length, C-terminal tag) (human, UniProt O00187 16-686).
T4 construct: The protein was secreted and purified on an anti-FLAG or anti-HIS column; also called hMASP-2; Full-length human MASP-2 protein; not shown: C-terminal HIS-tag or FLAG-tag
Description: BLI (ForteBio Octet RED96), antibody on Protein A biosensor, human MASP-2 in solution (100, 50, 25 nM).

The target of test [5] is T4, human MASP-2 protein (recombinant, …). Description: ELISA; plate coated with human MASP2 (1 ug/ml), serially diluted antibody, mouse anti-human IgG4 Fc HRP, OD450.
The target in test [6] is T5, Cyno MASP2.
T5 construct: Recombinant coated protein; distinct from m29 (native MASP-2 in cynomolgus serum); also called cynomolgus MASP-2 (recombinant, generated in house)
The test can be described thus: ELISA; plate coated with cynomolgus MASP2 (1 ug/ml), serially diluted antibody, mouse anti-human IgG4 Fc HRP, OD450.

Test [7] addresses T6, Recombinant Human Complement Component C1s (human, UniProt P09871 16-688, limits assumed).
T6 construct: Bought protein, construct not described; also called human C1s
T6 sequence (looked up): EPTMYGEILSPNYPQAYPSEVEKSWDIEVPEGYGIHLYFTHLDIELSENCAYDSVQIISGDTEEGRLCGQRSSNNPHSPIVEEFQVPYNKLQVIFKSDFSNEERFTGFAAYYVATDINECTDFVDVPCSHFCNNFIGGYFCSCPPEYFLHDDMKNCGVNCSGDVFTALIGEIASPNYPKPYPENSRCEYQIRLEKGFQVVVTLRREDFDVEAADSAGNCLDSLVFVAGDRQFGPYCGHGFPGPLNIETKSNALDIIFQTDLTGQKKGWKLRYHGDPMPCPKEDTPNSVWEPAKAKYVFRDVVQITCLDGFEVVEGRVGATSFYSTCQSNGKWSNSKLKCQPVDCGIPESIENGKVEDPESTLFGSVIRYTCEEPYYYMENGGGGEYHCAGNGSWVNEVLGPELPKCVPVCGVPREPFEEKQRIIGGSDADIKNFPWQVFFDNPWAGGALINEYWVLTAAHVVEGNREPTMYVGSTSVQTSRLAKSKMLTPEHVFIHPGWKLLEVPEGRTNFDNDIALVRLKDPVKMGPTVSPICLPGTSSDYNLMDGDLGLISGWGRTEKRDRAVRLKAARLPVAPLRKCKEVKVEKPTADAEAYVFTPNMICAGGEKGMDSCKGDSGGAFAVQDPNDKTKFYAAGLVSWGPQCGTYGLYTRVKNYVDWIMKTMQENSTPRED
The test can be described thus: ELISA; plate coated with recombinant human C1s, serially diluted antibody, mouse anti-human IgG4 HRP, OD450 (fit value printed for a flat curve).

The target in test [8] is T7, Rat MASP2 (rat, UniProt Q9JJS8).
T7 construct: purchased protein coated on the ELISA plate at 1 ug/ml
The test can be described thus: ELISA; plate coated with rat MASP2 (1 ug/ml), serially diluted antibody, mouse anti-human IgG4 Fc HRP, OD450 (fit value printed for a flat curve).

Test [9] deals with T8, Mouse MASP2 (mouse, UniProt Q91WP0).
T8 construct: purchased protein coated on the ELISA plate at 1 ug/ml
The test can be described thus: ELISA; plate coated with mouse MASP2 (1 ug/ml), serially diluted antibody, mouse anti-human IgG4 Fc HRP, OD450 (fit value printed for a flat curve).

Test [10] addresses T4, human MASP-2 protein (recombinant, …). Description: ELISA; plate coated with human MASP2, serially diluted antibody, anti-human IgG4 HRP, OD at 450nm; concentration axis printed as 'Antibody conc.(nM)'.
In test [11] the target is T3, Human FcRn (FCGRT&B2M) protein with His …. The test can be described thus: BLI (ForteBio), His-tagged human FcRn on Ni-NTA biosensor.

T3 sequence (P55899 24-297 limits assumed, chain 1 of 2): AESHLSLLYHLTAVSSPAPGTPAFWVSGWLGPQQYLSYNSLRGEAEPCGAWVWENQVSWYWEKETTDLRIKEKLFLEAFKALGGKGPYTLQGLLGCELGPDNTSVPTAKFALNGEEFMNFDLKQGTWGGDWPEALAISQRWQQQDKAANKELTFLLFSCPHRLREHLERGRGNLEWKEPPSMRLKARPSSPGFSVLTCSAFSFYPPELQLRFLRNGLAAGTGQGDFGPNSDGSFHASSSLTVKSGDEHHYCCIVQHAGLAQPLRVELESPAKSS
T3 sequence (P61769 21-119 limits assumed, chain 2 of 2): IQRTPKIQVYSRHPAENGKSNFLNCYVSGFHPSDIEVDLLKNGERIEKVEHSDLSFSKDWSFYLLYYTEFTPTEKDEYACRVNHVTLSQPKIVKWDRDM
T4 sequence (O00187 16-686): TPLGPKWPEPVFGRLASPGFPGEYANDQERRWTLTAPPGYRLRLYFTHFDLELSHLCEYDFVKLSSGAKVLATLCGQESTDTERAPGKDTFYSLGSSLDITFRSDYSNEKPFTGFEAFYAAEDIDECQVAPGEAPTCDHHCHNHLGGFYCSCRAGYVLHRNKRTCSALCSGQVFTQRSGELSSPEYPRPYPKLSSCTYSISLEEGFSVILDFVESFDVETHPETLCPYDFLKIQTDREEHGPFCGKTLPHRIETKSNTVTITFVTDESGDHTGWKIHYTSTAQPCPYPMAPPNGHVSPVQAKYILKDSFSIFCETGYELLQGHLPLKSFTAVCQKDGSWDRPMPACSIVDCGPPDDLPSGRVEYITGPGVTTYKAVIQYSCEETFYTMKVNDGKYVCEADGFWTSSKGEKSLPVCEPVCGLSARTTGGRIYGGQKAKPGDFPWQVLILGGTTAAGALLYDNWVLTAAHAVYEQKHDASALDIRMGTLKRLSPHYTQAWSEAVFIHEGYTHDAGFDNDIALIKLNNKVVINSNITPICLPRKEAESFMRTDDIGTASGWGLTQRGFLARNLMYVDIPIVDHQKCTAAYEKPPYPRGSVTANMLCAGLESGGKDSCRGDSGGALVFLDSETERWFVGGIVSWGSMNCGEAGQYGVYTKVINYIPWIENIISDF
T5 sequence (MASP-2 polypeptide, as listed by the source limits assumed): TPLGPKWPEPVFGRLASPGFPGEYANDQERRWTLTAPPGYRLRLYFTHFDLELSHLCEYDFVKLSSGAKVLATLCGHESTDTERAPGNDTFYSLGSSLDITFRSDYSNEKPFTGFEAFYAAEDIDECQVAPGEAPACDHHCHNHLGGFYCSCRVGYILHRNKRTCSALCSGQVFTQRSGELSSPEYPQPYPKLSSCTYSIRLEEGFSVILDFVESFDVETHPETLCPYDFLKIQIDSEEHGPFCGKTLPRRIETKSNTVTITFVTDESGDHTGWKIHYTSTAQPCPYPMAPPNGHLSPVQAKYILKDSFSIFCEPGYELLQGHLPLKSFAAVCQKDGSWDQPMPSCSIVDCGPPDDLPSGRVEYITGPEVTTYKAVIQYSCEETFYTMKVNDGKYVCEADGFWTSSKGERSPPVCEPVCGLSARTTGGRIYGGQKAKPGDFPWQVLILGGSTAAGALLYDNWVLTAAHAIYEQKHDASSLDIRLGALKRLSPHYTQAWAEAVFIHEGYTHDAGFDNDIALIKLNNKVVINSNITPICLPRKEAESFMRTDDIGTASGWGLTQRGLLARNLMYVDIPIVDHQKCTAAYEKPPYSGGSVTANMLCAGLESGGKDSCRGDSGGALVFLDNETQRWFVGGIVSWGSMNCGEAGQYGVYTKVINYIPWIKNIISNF
T7 sequence (Q9JJS8 20-685 limits assumed): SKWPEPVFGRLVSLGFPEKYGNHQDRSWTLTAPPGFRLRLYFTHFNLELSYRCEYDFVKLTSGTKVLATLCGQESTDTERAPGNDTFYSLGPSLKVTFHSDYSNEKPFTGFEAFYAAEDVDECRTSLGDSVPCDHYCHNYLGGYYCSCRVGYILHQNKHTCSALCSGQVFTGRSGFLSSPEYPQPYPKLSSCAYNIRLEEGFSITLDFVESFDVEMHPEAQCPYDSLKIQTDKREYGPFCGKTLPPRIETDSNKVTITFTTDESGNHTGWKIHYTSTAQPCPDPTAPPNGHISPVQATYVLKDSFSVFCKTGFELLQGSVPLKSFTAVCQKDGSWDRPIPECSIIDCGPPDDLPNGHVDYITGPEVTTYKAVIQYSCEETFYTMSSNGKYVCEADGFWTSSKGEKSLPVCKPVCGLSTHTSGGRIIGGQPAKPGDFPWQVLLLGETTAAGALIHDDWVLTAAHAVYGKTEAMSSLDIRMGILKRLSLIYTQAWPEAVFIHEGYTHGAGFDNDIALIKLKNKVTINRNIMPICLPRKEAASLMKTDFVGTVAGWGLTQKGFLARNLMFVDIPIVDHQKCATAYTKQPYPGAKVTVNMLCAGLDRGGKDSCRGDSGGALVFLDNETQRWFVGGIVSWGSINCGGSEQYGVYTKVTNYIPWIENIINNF
T8 sequence (Q91WP0 20-685 limits assumed): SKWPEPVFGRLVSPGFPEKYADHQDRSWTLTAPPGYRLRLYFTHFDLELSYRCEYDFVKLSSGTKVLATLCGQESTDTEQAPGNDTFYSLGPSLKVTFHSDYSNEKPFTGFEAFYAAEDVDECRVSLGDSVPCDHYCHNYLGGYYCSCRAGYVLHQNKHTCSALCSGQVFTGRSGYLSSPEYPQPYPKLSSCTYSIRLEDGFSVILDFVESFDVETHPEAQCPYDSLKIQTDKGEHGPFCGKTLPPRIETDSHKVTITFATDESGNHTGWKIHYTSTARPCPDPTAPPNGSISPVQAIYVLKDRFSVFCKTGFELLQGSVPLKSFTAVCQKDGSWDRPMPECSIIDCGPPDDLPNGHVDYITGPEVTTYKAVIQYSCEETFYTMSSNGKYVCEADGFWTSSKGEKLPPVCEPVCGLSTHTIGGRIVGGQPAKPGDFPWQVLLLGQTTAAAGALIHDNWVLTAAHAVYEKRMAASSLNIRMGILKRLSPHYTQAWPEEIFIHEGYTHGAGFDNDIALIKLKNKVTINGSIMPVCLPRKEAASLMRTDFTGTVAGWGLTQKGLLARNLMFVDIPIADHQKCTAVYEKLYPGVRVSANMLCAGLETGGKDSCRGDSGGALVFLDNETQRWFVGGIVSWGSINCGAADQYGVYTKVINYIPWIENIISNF

B1: 129C10 HaLa (129C10-hu) (antibody, human IgG4)
VH: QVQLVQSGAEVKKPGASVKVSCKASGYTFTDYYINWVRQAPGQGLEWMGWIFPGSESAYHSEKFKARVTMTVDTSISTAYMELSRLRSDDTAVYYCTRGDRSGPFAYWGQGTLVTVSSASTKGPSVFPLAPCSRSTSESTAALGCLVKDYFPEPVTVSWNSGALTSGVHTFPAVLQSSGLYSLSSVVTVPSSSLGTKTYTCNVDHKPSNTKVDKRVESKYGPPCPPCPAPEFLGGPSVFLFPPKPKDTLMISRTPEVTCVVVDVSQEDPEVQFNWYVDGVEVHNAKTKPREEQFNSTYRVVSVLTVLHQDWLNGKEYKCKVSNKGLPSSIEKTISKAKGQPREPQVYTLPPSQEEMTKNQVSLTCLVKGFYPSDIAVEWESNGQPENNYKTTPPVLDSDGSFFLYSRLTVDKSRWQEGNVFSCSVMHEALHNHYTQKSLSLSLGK
VL: DVVMTQSPLSLPVTLGQPASISCKSSQSLLYSNGKTYLNWLQQRPGQSPRRLIYLVSKLDSGVPDRFSGSGSGTDFTLKISRVEAEDVGVYYCVQVTHFPFTFGQGTKLEIKRTVAAPSVFIFPPSDEQLKSGTASVVCLLNNFYPREAKVQWKVDNALQSGNSQESVTEQDSKDSTYSLSSTLTLSKADYEKHKVYACEVTHQGLSSPVTKSFNRGEC
notes: Humanized; also called 129C10-hu-WT; Hu129C10_HaLa-hIgG4
Regarding B1, the binding result in [1] and in test [2] was “no binding (tested: about 2 ug/ml)” each time. For the same molecule, the results for the dissociation constant Kd in [3] and in test [4] were 6.1 nM and below 0.001 nM, respectively. Besides, the figures for the koff in test [3] and in test [4] were 0.00317 s⁻¹ and below 1e-07 s⁻¹, respectively. Also, the association rate constant (kon) (usually the rate constant with which the complex forms) was determined as 520000 M⁻¹ s⁻¹ in test [3] and 35300 M⁻¹ s⁻¹ in [4]. Also, the EC50 – broadly, the concentration that produces a half-maximal response – is 0.0127 µg/mL in test [5]; 0.0111 µg/mL in test [6]; around 1.65 µg/mL in test [7]; 17.2 µg/mL in test [8]; around 672 µg/mL in test [9]; 0.0162 nM in [10].

B2: 129C10-hu-YTE (Hu129C10 hIgG4_YTE kappa) (antibody)
heavy: QVQLVQSGAEVKKPGASVKVSCKASGYTFTDYYINWVRQAPGQGLEWMGWIFPGSESAYHSEKFKARVTMTVDTSISTAYMELSRLRSDDTAVYYCTRGDRSGPFAYWGQGTLVTVSSASTKGPSVFPLAPCSRSTSESTAALGCLVKDYFPEPVTVSWNSGALTSGVHTFPAVLQSSGLYSLSSVVTVPSSSLGTKTYTCNVDHKPSNTKVDKRVESKYGPPCPPCPAPEFLGGPSVFLFPPKPKDTLYITREPEVTCVVVDVSQEDPEVQFNWYVDGVEVHNAKTKPREEQFNSTYRVVSVLTVLHQDWLNGKEYKCKVSNKGLPSSIEKTISKAKGQPREPQVYTLPPSQEEMTKNQVSLTCLVKGFYPSDIAVEWESNGQPENNYKTTPPVLDSDGSFFLYSRLTVDKSRWQEGNVFSCSVMHEALHNHYTQKSLSLSLGK
light: DVVMTQSPLSLPVTLGQPASISCKSSQSLLYSNGKTYLNWLQQRPGQSPRRLIYLVSKLDSGVPDRFSGSGSGTDFTLKISRVEAEDVGVYYCVQVTHFPFTFGQGTKLEIKRTVAAPSVFIFPPSDEQLKSGTASVVCLLNNFYPREAKVQWKVDNALQSGNSQESVTEQDSKDSTYSLSSTLTLSKADYEKHKVYACEVTHQGLSSPVTKSFNRGEC
notes: also called Hu129C10_HaLa-hIgG4 with amino acid substitutions M252Y/S254T/T256E [YTE]
Take B2: the “fold increase of binding affinity against 129C10-hu” value in test [11] came to 3 fold. Further, in [3], the Kd – broadly, the equilibrium constant for the complex coming apart – was 1.88 nM; the koff (commonly the rate constant with which the complex falls apart) was 0.00101 s⁻¹; the kon is 536000 M⁻¹ s⁻¹.
